Square brackets hold non-standard residues; d marks the D form. Ends that are not written are not given here. Aib = CC(C)(N)C(=O)O
What was measured:
[1] = molecular target: human GLP-1 receptor (hGLP1R) (human, UniProt P43220 24-463); assay: cell-based or functional assay
[2] = molecular target: human secretin receptor (hSCTR) (human, UniProt P47872 23-440); assay: cell-based or functional assay
Chain of human secretin receptor (hSCTR) (P47872 23-440): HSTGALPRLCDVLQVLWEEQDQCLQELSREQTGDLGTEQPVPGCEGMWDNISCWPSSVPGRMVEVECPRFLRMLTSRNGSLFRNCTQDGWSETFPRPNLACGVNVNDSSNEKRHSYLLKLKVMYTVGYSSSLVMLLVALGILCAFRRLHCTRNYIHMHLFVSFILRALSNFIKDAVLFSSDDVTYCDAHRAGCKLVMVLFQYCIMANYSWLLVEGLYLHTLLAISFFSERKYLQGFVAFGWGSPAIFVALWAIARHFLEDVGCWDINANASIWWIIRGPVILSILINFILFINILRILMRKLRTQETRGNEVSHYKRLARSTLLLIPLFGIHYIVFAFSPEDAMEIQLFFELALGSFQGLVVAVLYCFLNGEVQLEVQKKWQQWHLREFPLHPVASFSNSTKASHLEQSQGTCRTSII

B1: SEQ ID NO: 111 (peptide)
peptide: H[Aib]EGTFTSD[Aib]SFLLEGAALQRFIQWLV-NH2
modifications: N-terminus assumed
SMILES: CC[C@H](C)[C@H](NC(=O)[C@H](Cc1ccccc1)NC(=O)[C@H](CCCNC(=N)N)NC(=O)[C@H](CCC(N)=O)NC(=O)[C@H](CC(C)C)NC(=O)[C@H](C)NC(=O)[C@H](C)NC(=O)CNC(=O)[C@H](CCC(=O)O)NC(=O)[C@H](CC(C)C)NC(=O)[C@H](CC(C)C)NC(=O)[C@H](Cc1ccccc1)NC(=O)[C@H](CO)NC(=O)C(C)(C)NC(=O)[C@H](CC(=O)O)NC(=O)[C@H](CO)NC(=O)[C@@H](NC(=O)[C@H](Cc1ccccc1)NC(=O)[C@@H](NC(=O)CNC(=O)[C@H](CCC(=O)O)NC(=O)C(C)(C)NC(=O)[C@@H](N)Cc1c[nH]cn1)[C@@H](C)O)[C@@H](C)O)C(=O)N[C@@H](CCC(N)=O)C(=O)N[C@@H](Cc1c[nH]c2ccccc12)C(=O)N[C@@H](CC(C)C)C(=O)N[C@H](C(N)=O)C(C)C
pEC50 hGLPR1 [1]: 10.5 -log M | pEC50 hSCTR [2]: 5.7 -log M

B2: SEQ ID NO: 112 (peptide)
peptide: H[Aib]EGTFTSDISYLLEGAALQRFIQWLV-NH2
modifications: N-terminus assumed
SMILES: CC[C@H](C)[C@H](NC(=O)[C@H](Cc1ccccc1)NC(=O)[C@H](CCCNC(=N)N)NC(=O)[C@H](CCC(N)=O)NC(=O)[C@H](CC(C)C)NC(=O)[C@H](C)NC(=O)[C@H](C)NC(=O)CNC(=O)[C@H](CCC(=O)O)NC(=O)[C@H](CC(C)C)NC(=O)[C@H](CC(C)C)NC(=O)[C@H](Cc1ccc(O)cc1)NC(=O)[C@H](CO)NC(=O)[C@@H](NC(=O)[C@H](CC(=O)O)NC(=O)[C@H](CO)NC(=O)[C@@H](NC(=O)[C@H](Cc1ccccc1)NC(=O)[C@@H](NC(=O)CNC(=O)[C@H](CCC(=O)O)NC(=O)C(C)(C)NC(=O)[C@@H](N)Cc1c[nH]cn1)[C@@H](C)O)[C@@H](C)O)[C@@H](C)CC)C(=O)N[C@@H](CCC(N)=O)C(=O)N[C@@H](Cc1c[nH]c2ccccc12)C(=O)N[C@@H](CC(C)C)C(=O)N[C@H](C(N)=O)C(C)C
pEC50 hGLPR1 [1]: 10.8 -log M | pEC50 hSCTR [2]: 5.6 -log M

B3: SEQ ID NO: 110 (peptide)
peptide: H[Aib]EGTFTSD[Aib]SVLLEGAALQRFIQWLV-NH2
modifications: N-terminus assumed
SMILES: CC[C@H](C)[C@H](NC(=O)[C@H](Cc1ccccc1)NC(=O)[C@H](CCCNC(=N)N)NC(=O)[C@H](CCC(N)=O)NC(=O)[C@H](CC(C)C)NC(=O)[C@H](C)NC(=O)[C@H](C)NC(=O)CNC(=O)[C@H](CCC(=O)O)NC(=O)[C@H](CC(C)C)NC(=O)[C@H](CC(C)C)NC(=O)[C@@H](NC(=O)[C@H](CO)NC(=O)C(C)(C)NC(=O)[C@H](CC(=O)O)NC(=O)[C@H](CO)NC(=O)[C@@H](NC(=O)[C@H](Cc1ccccc1)NC(=O)[C@@H](NC(=O)CNC(=O)[C@H](CCC(=O)O)NC(=O)C(C)(C)NC(=O)[C@@H](N)Cc1c[nH]cn1)[C@@H](C)O)[C@@H](C)O)C(C)C)C(=O)N[C@@H](CCC(N)=O)C(=O)N[C@@H](Cc1c[nH]c2ccccc12)C(=O)N[C@@H](CC(C)C)C(=O)N[C@H](C(N)=O)C(C)C
pEC50 hGLPR1 [1]: 9.7 -log M | pEC50 hSCTR [2]: 5.7 -log M

— US20260201008A1, “SECRETIN-DERIVED GLP1R SELECTIVE AGONISTS” (GUBRA A/S, priority 2023, published 2026)
